B1: Syntaxin-1B (Homo sapiens), P61266 (parent)
chain: MKDRTQELRSAKDSDDEEEVVHVDRDHFMDEFFEQVEEIRGCIEKLSEDVEQVKKQHSAILAAPNPDEKTKQELEDLTADIKKTANKVRSKLKAIEQSIEQEEGLNRSSADLRIRKTQHSTLSRKFVEVMTEYNATQSKYRDRCKDRIQRQLEITGRTTTNEELEDMLESGKLAIFTDDIKMDSQMTKQALNEIETRHNEIIKLETSIRELHDMFVDMAMLVESQGEMIDRIEYNVEHSVDYVERAVSDTKKAVKYQSKARRKKIMIIICCVVLGVVLASSIGGTLGL
partner: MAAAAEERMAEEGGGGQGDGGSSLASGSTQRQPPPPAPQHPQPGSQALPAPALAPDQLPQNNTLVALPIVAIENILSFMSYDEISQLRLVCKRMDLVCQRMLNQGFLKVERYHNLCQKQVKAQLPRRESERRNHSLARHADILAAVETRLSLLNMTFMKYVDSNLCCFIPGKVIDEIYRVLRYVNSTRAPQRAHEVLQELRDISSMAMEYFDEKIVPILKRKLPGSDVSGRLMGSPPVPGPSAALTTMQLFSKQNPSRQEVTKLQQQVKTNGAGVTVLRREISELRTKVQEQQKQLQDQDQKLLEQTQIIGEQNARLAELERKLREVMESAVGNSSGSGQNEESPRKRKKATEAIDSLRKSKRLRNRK

Variants of: B1
Conditions: with fbx28_human FBXO28, Q9NVF7

Row | Variant | effect of a mutation on the interaction
1 | MKDRTQELRSAKDSDDEEEVVHVDRDHFMDEFFEQVEEIRGCIEKLSEDVEQVKKQHSAILAAPNPDEKTKQELEDLTADIKKTANKVRSKLKAIEQSIEQEEGLNRSSADLRIRKTQHSTLSRKFVEVMTEYEATQSKYRDRCKDRIQRQLEITGRTTTNEELEDMLESGKLAIFTDDIKMDSQMTKQALNEIETRHNEIIKLETSIRELHDMFVDMAMLVESQGEMIDRIEYNVEHSVDYVERAVSDTKKAVKYQSKARRKKIMIIICCVVLGVVLASSIGGTLGL [N134E] | with no effect
2 | MKDRTQELRSAKDSDDEEEVVHVDRDHFMDEFFEQVEEIRGCIEKLSEDVEQVKKQHSAILAAPNPDEKTKQELEDLTADIKKTANKVRSKLKAIEQSIEQEEGLNRSSADLRIRKTQHSTLSRKFVEVMTEYNATQSKYRDRCKDRIQRQLEITGRTTTNEELEDMLESGKLAIFTDDIKMDSQMTKQALNEIETRHNEIIKLETSIRELHDMFVDMAMLVESQGEMIDRIEYNVEHPVDYVERAVSDTKKAVKYQSKARRKKIMIIICCVVLGVVLASSIGGTLGL [S239P] | decreasing interaction strength
3 | MKDRTQELRSAKDSDDEEEVVHVDRDHFMDEFFEQVEEIRGCIEKLSEDVEQVKKQHSAILAAPNPDEKTKQELEDLTADIKKTANKVRSKLKAIEQSIEQEEGLNRSSADLRIRKTQHSTLSRKFVEVMTEYNATQSKYRDRCKDRIQRQLEITGRTTTNEELEDMLESGKLAIFTDDIKMDSQMTKQALNEIETRHNEIIKLETSIRELHDMFEDMAMLVESQGEMIDRIEYNVEHSVDYVERAVSDTKKAVKYQSKARRKKIMIIICCVVLGVVLASSIGGTLGL [V216E] | decreasing interaction strength
4 | MKDRTQELRSAKDSDDEEEVVHVDRDHFMDEFFEQVEEIRGCIEKLSEDVEQVKKQHSAILAAPNPDEKTKQELEDLTADIKKTANKVRSKLKAIEQSIEQEEGLNRSSADLRIRKTQHSTLSRKFVEVMTEYNATQSKYRDRCKDRIQRQLEITGRTTTNEELEDMLESGKLAIFTDDIKMDSQMTKQALNEIETRHNEIIKLETSIRELHDMFVDMAMLVESQREMIDRIEYNVEHSVDYVERAVSDTKKAVKYQSKARRKKIMIIICCVVLGVVLASSIGGTLGL [G226R] | decreasing interaction strength
